{
  "source": "paper PMC4254994",
  "about": "(PLoS ONE, 2014)",
  "proteins": {"B1": {"name": "Bacterial proteasome activator Bpa (Rv3780) of Mycobacterium tuberculosis (natural protein)", "chain": "MVIGLSTGSDDDDVEVIGGVDPRLIAVQENDSDESSLTDLVEQPAKVMRIGTMIKQLLEEVRAAPLDEASRNRLRDIHATSIRELEDGLAPELREELDRLTLPFNEDAVPSDAELRIAQAQLVGWLEGLFHGIQTALFAQQMAARAQLQQMRQGALPPGVGKSGQHGHGTGQYL"}},
  "biological_target": "the molecule itself",
  "test": "SEC",
  "data": [
    {"protein": "B1", "values": [
      {"measurement": "stoichiometry N", "result": "~6"}
    ]}
  ]
}
